Measured values reported in patent US20220411501A1 (INTERNATIONAL DRUG DEVELOPMENT BIOTECH, published 2022).

Columns and labels:
[1] = target: T1, CD117 (c-Kit, stem cell factor receptor) on HEL or TF1 human erythroleukemia cells (human, UniProt P10721 26-976); experiment: flow cytometry on HEL cells; 1 µl/2.10^5 cells
T1 construct: whole, on cells
Procedure: (§1) By flow cytometry, the humanized mAb staining was analyzed on HEL CD117 positive cell line. […] No staining was observed on the cell line CEM (CD117 negative, (data not shown).

[2] = target: T1, CD117 (c-Kit, stem cell factor …); experiment: flow cytometry on HEL cells; 10 µl/2.10^5 cells
Procedure: as §1

[3] = target: T1, CD117 (c-Kit, stem cell factor …); experiment: flow cytometry on HEL cells; 0.1 µl/2.10^5 cells
Procedure: as §1

[4] = target: T1, CD117 (c-Kit, stem cell factor …); experiment: flow cytometry on HEL cells; 100 µl/2.10^5 cells
Procedure: as §1

T1 sequence (P10721 26-976): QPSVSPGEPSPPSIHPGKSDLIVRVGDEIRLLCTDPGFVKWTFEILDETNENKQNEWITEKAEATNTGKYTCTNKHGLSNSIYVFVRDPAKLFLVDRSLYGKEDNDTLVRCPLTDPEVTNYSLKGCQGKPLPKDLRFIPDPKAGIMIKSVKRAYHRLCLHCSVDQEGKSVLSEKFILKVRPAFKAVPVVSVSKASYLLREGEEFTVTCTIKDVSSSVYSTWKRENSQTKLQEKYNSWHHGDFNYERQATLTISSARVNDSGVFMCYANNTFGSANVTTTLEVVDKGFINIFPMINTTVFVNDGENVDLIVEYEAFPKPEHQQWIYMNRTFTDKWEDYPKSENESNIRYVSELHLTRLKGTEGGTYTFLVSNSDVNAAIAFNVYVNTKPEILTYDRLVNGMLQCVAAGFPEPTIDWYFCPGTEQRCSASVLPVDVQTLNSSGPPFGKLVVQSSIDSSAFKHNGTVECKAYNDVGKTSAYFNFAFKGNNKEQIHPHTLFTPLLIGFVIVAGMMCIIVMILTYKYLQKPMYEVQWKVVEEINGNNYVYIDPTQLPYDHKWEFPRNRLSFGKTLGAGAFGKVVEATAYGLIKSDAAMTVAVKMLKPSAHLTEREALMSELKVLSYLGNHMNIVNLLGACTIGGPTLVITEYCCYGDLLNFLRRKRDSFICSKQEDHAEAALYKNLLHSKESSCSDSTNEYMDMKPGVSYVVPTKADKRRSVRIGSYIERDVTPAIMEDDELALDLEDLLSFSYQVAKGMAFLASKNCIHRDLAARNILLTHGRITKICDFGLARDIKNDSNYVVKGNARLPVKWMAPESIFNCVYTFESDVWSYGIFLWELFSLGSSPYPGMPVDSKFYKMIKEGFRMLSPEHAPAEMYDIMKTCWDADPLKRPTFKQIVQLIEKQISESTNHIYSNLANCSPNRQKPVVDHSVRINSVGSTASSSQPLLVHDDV

Row | Binder | % labelled HEL cells [1] [%] | MFI [1] | % labelled HEL cells [2] [%] | MFI [2] | % labelled HEL cells [3] [%] | MFI [3] | % labelled HEL cells [4] [%] | MFI [4]
1 | ch36-05 chimeric monoclonal antibody (antibody, human IgG1, kappa, V domains shown, Murine VH + human IgG1 Fc; murine VL + human Kappa; also called chR036-05; chR036.05) VH: QVQLQQSGAELVKPGAPVKLSCKASGYTFTRYWMNWVKQRPGRGLEWIGRIDPSDSEIHYNQNFKDKATLTVDKSSSTAYIQLSSLTSEDSAVYYCARDYGSDYYAMDYWGQGTSVTVSS VL: QIVLTQSPAIMSASLGEEITLTCSASSSVSYMHWYQQKSGTSPKLLIYSTSNLTSGVPSRFSGSGSGTFYSLTISSVEAEDAADYYCHQWSSYPFGGGTKLEIKR | 80 | 259 | 81 | 262 | 43 | 259 | 80 | 251
2 | humanized antibody 36-5 Hz121 (antibody, human IgG1, V domains shown, The variable regions were cloned into vector p3U containing the human IgG1 constant region; also called H-36.5Hz30 + L-36.5Hz31) VH: QVQLVQSGAEVKKPGASVKVSCKASGYTFTSYWMNWVRQAPGQGLEWMGRIDPSDSEIHYNQKFKGRVTMTVDTSTSTAYMELSSLRSEDTAVYYCARDYGSDYYAMDYWGQGTLVTVSS VL: QIVLTQSPAFQSVTPGEKVTITCSASQSVSYMHWYQQKSGTSPKLLIYSTSNLTSGVPSRFSGSGSGTDYTLTISSLEAEDAATYYCHQWSSYPFGGGTKVEIK | 67 | 228 | 70 | 236 | 59 | 210 | 73 | 241
3 | humanized antibody 36-5 Hz128 (antibody, human IgG1, V domains shown, The variable regions were cloned into vector p3U containing the human IgG1 constant region; also called H-36.5Hz31 + L-36.5Hz31) VH: QVQLVQSGAEVKKPGASVKVSCKASGYTFTSYWMNWVRQAPGQGLEWIGRIDPSDSEIHYNQKFKGRVTMTVDTSTSTAYMELSSLRSEDTAVYYCARDYGSDYYAMDYWGQGTLVTVSS VL: QIVLTQSPAFQSVTPGEKVTITCSASQSVSYMHWYQQKSGTSPKLLIYSTSNLTSGVPSRFSGSGSGTDYTLTISSLEAEDAATYYCHQWSSYPFGGGTKVEIK | 72 | 240 | 77 | 250 | 61 | 214 | 94 | 291
4 | humanized antibody 36-5 Hz114 (antibody, human IgG1, V domains shown, The variable regions were cloned into expression vector p3U containing the human IgG1 constant region; also called H-36.5Hz27 + L-36.5Hz31) VH: QVQLVQSGAEVKKPGASVKVSCKASGYTFTSYWMNWVRQAPGQGLEWMGRIDPSDSEIHYNQKFKDKATLTVDKSTSTAYMELSSLRSEDTAVYYCARDYGSDYYAMDYWGQGTLVTVSS VL: QIVLTQSPAFQSVTPGEKVTITCSASQSVSYMHWYQQKSGTSPKLLIYSTSNLTSGVPSRFSGSGSGTDYTLTISSLEAEDAATYYCHQWSSYPFGGGTKVEIK | 66 | 228 | 70 | 136 | 64 | 225 | 74 | 242
